The record followed here is patent US20060073152A1.

Holding throughout (experiment): peptide competition for albumin
Experiment [1] has as its target T1, rabbit serum albumin (rabbit), P49065.
T1 chain: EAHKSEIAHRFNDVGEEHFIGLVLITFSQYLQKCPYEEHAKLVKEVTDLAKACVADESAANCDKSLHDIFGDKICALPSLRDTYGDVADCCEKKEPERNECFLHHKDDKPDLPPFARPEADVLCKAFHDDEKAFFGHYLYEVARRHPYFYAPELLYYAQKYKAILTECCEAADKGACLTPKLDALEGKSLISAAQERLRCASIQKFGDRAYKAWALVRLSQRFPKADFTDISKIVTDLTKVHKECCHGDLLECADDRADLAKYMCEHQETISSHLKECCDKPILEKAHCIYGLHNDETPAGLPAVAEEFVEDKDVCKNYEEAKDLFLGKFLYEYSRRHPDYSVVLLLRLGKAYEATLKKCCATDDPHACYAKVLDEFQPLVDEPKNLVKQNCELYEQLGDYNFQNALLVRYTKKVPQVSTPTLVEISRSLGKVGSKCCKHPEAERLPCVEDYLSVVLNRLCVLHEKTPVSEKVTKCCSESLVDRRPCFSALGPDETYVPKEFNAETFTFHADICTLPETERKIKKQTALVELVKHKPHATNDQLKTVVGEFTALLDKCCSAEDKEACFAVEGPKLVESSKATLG

The target in experiment [2] is mouse serum albumin (mouse), P07724.
Experiment [3] has as its target T2, rat serum albumin (rat), P02770.
T2 chain: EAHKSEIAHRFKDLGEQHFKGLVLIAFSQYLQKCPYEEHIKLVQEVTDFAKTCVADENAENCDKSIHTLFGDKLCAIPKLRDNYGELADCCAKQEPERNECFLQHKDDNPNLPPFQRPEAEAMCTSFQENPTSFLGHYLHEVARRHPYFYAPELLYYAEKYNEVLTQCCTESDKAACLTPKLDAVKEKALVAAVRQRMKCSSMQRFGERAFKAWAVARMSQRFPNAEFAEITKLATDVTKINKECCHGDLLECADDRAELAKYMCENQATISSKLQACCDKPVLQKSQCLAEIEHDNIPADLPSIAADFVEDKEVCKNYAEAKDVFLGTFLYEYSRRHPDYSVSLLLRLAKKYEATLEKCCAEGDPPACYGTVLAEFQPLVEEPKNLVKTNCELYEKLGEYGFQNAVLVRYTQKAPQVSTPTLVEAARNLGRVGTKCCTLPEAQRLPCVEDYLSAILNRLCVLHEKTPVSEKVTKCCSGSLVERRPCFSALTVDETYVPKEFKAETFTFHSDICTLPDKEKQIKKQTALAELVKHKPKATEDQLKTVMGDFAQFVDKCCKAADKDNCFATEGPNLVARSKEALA

mouse serum albumin (mouse), P07724, sequence (P07724 25-608 limits assumed): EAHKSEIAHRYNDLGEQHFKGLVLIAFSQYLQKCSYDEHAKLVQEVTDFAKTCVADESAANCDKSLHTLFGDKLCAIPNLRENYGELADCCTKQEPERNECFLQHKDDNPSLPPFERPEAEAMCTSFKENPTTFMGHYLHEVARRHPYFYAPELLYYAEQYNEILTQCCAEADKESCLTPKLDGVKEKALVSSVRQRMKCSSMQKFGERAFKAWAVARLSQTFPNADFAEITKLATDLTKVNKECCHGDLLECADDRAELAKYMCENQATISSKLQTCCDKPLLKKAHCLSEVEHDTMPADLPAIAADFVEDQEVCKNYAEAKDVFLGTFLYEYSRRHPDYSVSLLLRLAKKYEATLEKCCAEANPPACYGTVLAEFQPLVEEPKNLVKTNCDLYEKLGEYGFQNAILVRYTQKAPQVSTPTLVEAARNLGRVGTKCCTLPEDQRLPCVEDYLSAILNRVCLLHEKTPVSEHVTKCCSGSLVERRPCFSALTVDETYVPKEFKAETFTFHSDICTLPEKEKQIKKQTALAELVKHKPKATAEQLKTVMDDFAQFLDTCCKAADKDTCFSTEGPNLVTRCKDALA

B1: SA13 (peptide)
peptide: RLMEDICLARWGCLWEDD
modifications: not checked
As usually defined, the IC50 is the concentration needed to halve the response being measured. A lower IC50 goes with higher potency. B1: the values for the half-maximal inhibitory concentration (IC50) in experiment [1], in experiment [2] and in experiment [3] were 3200 nM, 188 nM and 2480 nM, respectively.
